*1 amine or outer side, *2 acyl side, *3 side chain or, on linkers, in order; H or OH if unused. Side-chain parts run from the residue outwards. The star is where a group is joined. C18 diacid = O=C(O)CCCCCCCCCCCCCCCCC(=O)*; γGlu = O=C(O)[C@H](CCC(=O)[*:2])N[*:1]; Isovaleryl = CC(C)CC(=O)*; AEEA = NCCOCCOCC(=O)O

To fix the notation:
T1: human neuropeptide Y2 receptor (human, UniProt P49146 1-381)
T1 construct: whole, on cells; also called hNPY2 receptor; hNPY2-R
T1 sequence (looked up): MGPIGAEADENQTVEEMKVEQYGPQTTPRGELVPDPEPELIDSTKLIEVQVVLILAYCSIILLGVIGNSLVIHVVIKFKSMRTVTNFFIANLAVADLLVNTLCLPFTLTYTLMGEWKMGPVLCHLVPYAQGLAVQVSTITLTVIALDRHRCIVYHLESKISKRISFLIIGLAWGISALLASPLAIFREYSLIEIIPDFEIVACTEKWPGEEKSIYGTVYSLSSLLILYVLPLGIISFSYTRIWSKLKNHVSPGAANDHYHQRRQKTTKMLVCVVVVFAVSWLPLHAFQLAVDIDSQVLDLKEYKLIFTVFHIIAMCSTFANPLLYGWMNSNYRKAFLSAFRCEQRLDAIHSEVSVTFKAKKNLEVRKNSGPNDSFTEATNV

B1: Compound 1 (peptide)
peptide: Isovaleryl-APEK([AEEA-AEEA-γGlu-C18 diacid])PEEDAQPEELQEYYVSLRHYYNWLTRQRY-NH2
SMILES: CC(C)CC(=O)N[C@@H](C)C(=O)N1CCC[C@H]1C(=O)N[C@@H](CCC(=O)O)C(=O)N[C@@H](CCCCNC(=O)COCCOCCNC(=O)COCCOCCNC(=O)CC[C@H](NC(=O)CCCCCCCCCCCCCCCCC(=O)O)C(=O)O)C(=O)N1CCC[C@H]1C(=O)N[C@@H](CCC(=O)O)C(=O)N[C@@H](CCC(=O)O)C(=O)N[C@@H](CC(=O)O)C(=O)N[C@@H](C)C(=O)N[C@@H](CCC(N)=O)C(=O)N1CCC[C@H]1C(=O)N[C@@H](CCC(=O)O)C(=O)N[C@@H](CCC(=O)O)C(=O)N[C@@H](CC(C)C)C(=O)N[C@@H](CCC(N)=O)C(=O)N[C@@H](CCC(=O)O)C(=O)N[C@@H](Cc1ccc(O)cc1)C(=O)N[C@@H](Cc1ccc(O)cc1)C(=O)N[C@H](C(=O)N[C@@H](CO)C(=O)N[C@@H](CC(C)C)C(=O)N[C@@H](CCCNC(=N)N)C(=O)N[C@@H](Cc1c[nH]cn1)C(=O)N[C@@H](Cc1ccc(O)cc1)C(=O)N[C@@H](Cc1ccc(O)cc1)C(=O)N[C@@H](CC(N)=O)C(=O)N[C@@H](Cc1c[nH]c2ccccc12)C(=O)N[C@@H](CC(C)C)C(=O)N[C@H](C(=O)N[C@@H](CCCNC(=N)N)C(=O)N[C@@H](CCC(N)=O)C(=O)N[C@@H](CCCNC(=N)N)C(=O)N[C@@H](Cc1ccc(O)cc1)C(N)=O)[C@@H](C)O)C(C)C
B2: Compound 5 (peptide)
peptide: Isovaleryl-APEK([AEEA-AEEA-γGlu-C18 diacid])PEEEVSPEELQRYYVSLRHYYNWLTRQRY-NH2
SMILES: CC(C)CC(=O)N[C@@H](C)C(=O)N1CCC[C@H]1C(=O)N[C@@H](CCC(=O)O)C(=O)N[C@@H](CCCCNC(=O)COCCOCCNC(=O)COCCOCCNC(=O)CC[C@H](NC(=O)CCCCCCCCCCCCCCCCC(=O)O)C(=O)O)C(=O)N1CCC[C@H]1C(=O)N[C@@H](CCC(=O)O)C(=O)N[C@@H](CCC(=O)O)C(=O)N[C@@H](CCC(=O)O)C(=O)N[C@H](C(=O)N[C@@H](CO)C(=O)N1CCC[C@H]1C(=O)N[C@@H](CCC(=O)O)C(=O)N[C@@H](CCC(=O)O)C(=O)N[C@@H](CC(C)C)C(=O)N[C@@H](CCC(N)=O)C(=O)N[C@@H](CCCNC(=N)N)C(=O)N[C@@H](Cc1ccc(O)cc1)C(=O)N[C@@H](Cc1ccc(O)cc1)C(=O)N[C@H](C(=O)N[C@@H](CO)C(=O)N[C@@H](CC(C)C)C(=O)N[C@@H](CCCNC(=N)N)C(=O)N[C@@H](Cc1c[nH]cn1)C(=O)N[C@@H](Cc1ccc(O)cc1)C(=O)N[C@@H](Cc1ccc(O)cc1)C(=O)N[C@@H](CC(N)=O)C(=O)N[C@@H](Cc1c[nH]c2ccccc12)C(=O)N[C@@H](CC(C)C)C(=O)N[C@H](C(=O)N[C@@H](CCCNC(=N)N)C(=O)N[C@@H](CCC(N)=O)C(=O)N[C@@H](CCCNC(=N)N)C(=O)N[C@@H](Cc1ccc(O)cc1)C(N)=O)[C@@H](C)O)C(C)C)C(C)C
B3: Compound 4 (peptide)
peptide: Isovaleryl-APEK([AEEA-AEEA-γGlu-C18 diacid])PEEDASPEELQRYYVSLRHYYNWLQRQRY-NH2
SMILES: CC(C)CC(=O)N[C@@H](C)C(=O)N1CCC[C@H]1C(=O)N[C@@H](CCC(=O)O)C(=O)N[C@@H](CCCCNC(=O)COCCOCCNC(=O)COCCOCCNC(=O)CC[C@H](NC(=O)CCCCCCCCCCCCCCCCC(=O)O)C(=O)O)C(=O)N1CCC[C@H]1C(=O)N[C@@H](CCC(=O)O)C(=O)N[C@@H](CCC(=O)O)C(=O)N[C@@H](CC(=O)O)C(=O)N[C@@H](C)C(=O)N[C@@H](CO)C(=O)N1CCC[C@H]1C(=O)N[C@@H](CCC(=O)O)C(=O)N[C@@H](CCC(=O)O)C(=O)N[C@@H](CC(C)C)C(=O)N[C@@H](CCC(N)=O)C(=O)N[C@@H](CCCNC(=N)N)C(=O)N[C@@H](Cc1ccc(O)cc1)C(=O)N[C@@H](Cc1ccc(O)cc1)C(=O)N[C@H](C(=O)N[C@@H](CO)C(=O)N[C@@H](CC(C)C)C(=O)N[C@@H](CCCNC(=N)N)C(=O)N[C@@H](Cc1c[nH]cn1)C(=O)N[C@@H](Cc1ccc(O)cc1)C(=O)N[C@@H](Cc1ccc(O)cc1)C(=O)N[C@@H](CC(N)=O)C(=O)N[C@@H](Cc1c[nH]c2ccccc12)C(=O)N[C@@H](CC(C)C)C(=O)N[C@@H](CCC(N)=O)C(=O)N[C@@H](CCCNC(=N)N)C(=O)N[C@@H](CCC(N)=O)C(=O)N[C@@H](CCCNC(=N)N)C(=O)N[C@@H](Cc1ccc(O)cc1)C(N)=O)C(C)C
B4: Compound 6 (peptide)
peptide: Isovaleryl-APEK([AEEA-AEEA-γGlu-C18 diacid])PEEEASPEELQRYYVSARHYYNWLTRQRY-NH2
SMILES: CC(C)CC(=O)N[C@@H](C)C(=O)N1CCC[C@H]1C(=O)N[C@@H](CCC(=O)O)C(=O)N[C@@H](CCCCNC(=O)COCCOCCNC(=O)COCCOCCNC(=O)CC[C@H](NC(=O)CCCCCCCCCCCCCCCCC(=O)O)C(=O)O)C(=O)N1CCC[C@H]1C(=O)N[C@@H](CCC(=O)O)C(=O)N[C@@H](CCC(=O)O)C(=O)N[C@@H](CCC(=O)O)C(=O)N[C@@H](C)C(=O)N[C@@H](CO)C(=O)N1CCC[C@H]1C(=O)N[C@@H](CCC(=O)O)C(=O)N[C@@H](CCC(=O)O)C(=O)N[C@@H](CC(C)C)C(=O)N[C@@H](CCC(N)=O)C(=O)N[C@@H](CCCNC(=N)N)C(=O)N[C@@H](Cc1ccc(O)cc1)C(=O)N[C@@H](Cc1ccc(O)cc1)C(=O)N[C@H](C(=O)N[C@@H](CO)C(=O)N[C@@H](C)C(=O)N[C@@H](CCCNC(=N)N)C(=O)N[C@@H](Cc1c[nH]cn1)C(=O)N[C@@H](Cc1ccc(O)cc1)C(=O)N[C@@H](Cc1ccc(O)cc1)C(=O)N[C@@H](CC(N)=O)C(=O)N[C@@H](Cc1c[nH]c2ccccc12)C(=O)N[C@@H](CC(C)C)C(=O)N[C@H](C(=O)N[C@@H](CCCNC(=N)N)C(=O)N[C@@H](CCC(N)=O)C(=O)N[C@@H](CCCNC(=N)N)C(=O)N[C@@H](Cc1ccc(O)cc1)C(N)=O)[C@@H](C)O)C(C)C
B5: Compound 3 (peptide)
peptide: Isovaleryl-APEK([AEEA-AEEA-γGlu-C18 diacid])PEEEASPAELQRYYVSLRHYYNWLTRQRY-NH2
SMILES: CC(C)CC(=O)N[C@@H](C)C(=O)N1CCC[C@H]1C(=O)N[C@@H](CCC(=O)O)C(=O)N[C@@H](CCCCNC(=O)COCCOCCNC(=O)COCCOCCNC(=O)CC[C@H](NC(=O)CCCCCCCCCCCCCCCCC(=O)O)C(=O)O)C(=O)N1CCC[C@H]1C(=O)N[C@@H](CCC(=O)O)C(=O)N[C@@H](CCC(=O)O)C(=O)N[C@@H](CCC(=O)O)C(=O)N[C@@H](C)C(=O)N[C@@H](CO)C(=O)N1CCC[C@H]1C(=O)N[C@@H](C)C(=O)N[C@@H](CCC(=O)O)C(=O)N[C@@H](CC(C)C)C(=O)N[C@@H](CCC(N)=O)C(=O)N[C@@H](CCCNC(=N)N)C(=O)N[C@@H](Cc1ccc(O)cc1)C(=O)N[C@@H](Cc1ccc(O)cc1)C(=O)N[C@H](C(=O)N[C@@H](CO)C(=O)N[C@@H](CC(C)C)C(=O)N[C@@H](CCCNC(=N)N)C(=O)N[C@@H](Cc1c[nH]cn1)C(=O)N[C@@H](Cc1ccc(O)cc1)C(=O)N[C@@H](Cc1ccc(O)cc1)C(=O)N[C@@H](CC(N)=O)C(=O)N[C@@H](Cc1c[nH]c2ccccc12)C(=O)N[C@@H](CC(C)C)C(=O)N[C@H](C(=O)N[C@@H](CCCNC(=N)N)C(=O)N[C@@H](CCC(N)=O)C(=O)N[C@@H](CCCNC(=N)N)C(=O)N[C@@H](Cc1ccc(O)cc1)C(N)=O)[C@@H](C)O)C(C)C

This assay has as its target T1, human neuropeptide Y2 receptor. Nature of the assay: radioligand competition (125I-PYY(1-36)), hNPY2R membranes. How it is done: The filtration RLB assay was carried out in 96-well plates in a final volume of 100 μl per well. Freeze-dried test peptides were dissolved in 100% dimethyl sulfoxide (DMSO) to stock solutions of 1 mM and serial dilutions were performed in assay buffer (50 mM HEPES, 5 mM MgCl₂, 1 mM CaCl₂, pH 7.4) containing 0.2% ovalbumin. […] Next, 80 μL membranes (HTS066M, ChemiSCREEN™ Human Neuropeptide Y2 Receptor Membrane Preparation, CHEMICON) were added to each well to give a final protein concentration of 0.5 μg/well. The plates were sealed and incubated at room temperature for 2 hours in a plate shaker set at 400 rpm. The incubation was stopped by vacuum filtration onto 0.5% poly-ethylene amine (PEI) presoaked GF/C filters using a 96-well FilterMate™ harvester (Perkin Elmer) followed by four washes with 300 μl/well ice-cold wash buffer (50 mM HEPES, 500 mM NaCl, pH7.4). Filter plates were then dried for 60 min at room temperature and the bottom of the plates was sealed with backing tape UniFilter-96. Finally, 50 μl/well scintillation counter cocktail (Microscint20, Packard) was added and the radioactivity was counted in the Packard TopCount NXT scintillation counter. IC₅₀ values (the half maximal inhibitory concentration of the agonist) were calculated by nonlinear regression analysis of sigmoidal dose-response curves.
On the technique in general: Displacement assays read how much labelled ligand stays bound in the presence of the test substance.
For orientation: Ki means the dissociation constant of the complex between target and ligand, obtained from inhibition or displacement. The low end stands for higher affinity, the high end for lower affinity. Take B1: the Ki stood at 2.5 nM.

Molecule B2 yielded a Ki of 14.8 nM.

In turn, B3 showed an inhibition constant (Ki) of 1.43 nM. Consider B4, for which the affinity corresponds to a Ki of 6.52 nM. The figure for B5 is 3.14 nM.

Values taken from patent US20210139548A1 (published 2021).
